Target: the molecule itself
Experiment: cryo-EM structure; auto-assembled filaments of recombinant IFI16 PYD, 73 uM, in 40 mM HEPES pH 7.4, 160 mM NaCl, 1 mM EDTA, 1 mM DTT; helical reconstruction

B1: IFI16^PYD (pyrin domain of human Interferon Inducible Protein 16, residues 1-94) (domain or fragment, UniProt Q16666 1-94, looked up)
chain: MGKKYKNIVLLKGLEVINDYHFRMVKSLLSNDLKLNLKMREEYDKIQIADLMEEKFRGDAGLGKLIKIFEDIPTLEDLAETLKKEKLKVKGPAL
notes: Interferon inducible protein 16 (IFI16), human, pyrin domain, residues 1-94; Assembles into a helical filament (three-start helix, 134.6 degrees rotation, 5.6 Å rise, no rotational symmetry); The number of copies in a filament is not defined; Cloned in pET21b; also called IFI16^PYD filament; source: E. coli BL21(DE3), purified (Ni-NTA, Superdex 75 SEC)
B1: binds.

From publication doi:10.1101/2025.01.02.631089, “The atypical filament assembly underpins the inflammasome-independent functions of IFI16” (bioRxiv, 2025)
